Measurements as given in patent publication US20070107085.

Target: T1, Gly-Asp-Asp-Asp-Asp-Lys-β-naphthylamide
T1 chain: GDDDDK

B1: CBM-enterokinase produced transiently in lettuce and purified on cellulose (protein)
chain: MVATAKYGTPVIDGEIDEIWNTTEEIETKAVAMGSLDKNATAKVRVLWDENYLYVLAIVKDPVLNKDNSNPWEQDSVEIFIDENNHKTGYYEDDDAQFRVNYMNEQTFGTGGSPARFKTAVKLIEGGYIVEAAIKWKTIKPTPNTVIGFNIQVNDANEKGQRVGIISWSDPTNNSWRDPSKFGNLRLIK
For B1, the Enterokinase activity was 442,7 cps/min/µg.
